The values that follow are results of earlier work, collected in paper doi:10.1101/2022.08.17.503475.

Usually pKa stands for the pH at which an ionisable group is half protonated.

The data set concerns the target Glu14 (UniProt position 14, GAILAEVIGTT). The experiment in a line: NMR. The settings on record: TPP+-bound; alternating access in slow exchange throughout the tested pH range.

For “EmrE (multidrug transporter EmrE, small multidrug resistance family) (Escherichia coli)”, the pKa is on record as 6.8 ± 0.1.
